Ends that are not written are not given here. Me3 = trimethyl-lysine; Me2 = dimethyl-lysine
T1: MLL4 PHD1–3 (residues 156–341) (UniProt O14686 156-341)
T1 construct: MLL4 (KMT2D, ALR), PHD fingers 1–3, residues 156–341; Detected on the array with anti-6xHis-HRP; The purification of the PHD constructs is not described separately; also called MLL4 PHD1–3 cassette; KMT2D PHD1–3; source: bacterially expressed recombinant
T1 sequence (looked up): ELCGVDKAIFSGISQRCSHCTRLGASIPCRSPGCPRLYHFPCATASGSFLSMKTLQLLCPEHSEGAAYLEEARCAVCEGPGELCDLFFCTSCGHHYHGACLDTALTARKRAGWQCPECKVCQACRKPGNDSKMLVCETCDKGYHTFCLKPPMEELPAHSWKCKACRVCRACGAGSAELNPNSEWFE


What was measured:
Experiment in all cases: peptide or protein array; SPOT peptides on cellulose membrane; 1 μM 6xHis-tagged MLL4 PHD cassette in TBS-T overnight at 4 °C; probed with anti-6xHis-HRP, chemiluminescence; signals relative to the H4K20me0 peptide (100%), spots of at least 50% taken as candidate binders
Details in all cases: both partners purified
[1] = target: T1, MLL4 PHD1–3 (residues 156–341)
[2] = target: T2, MLL4 PHD4–6 (residues 1358–1572) (UniProt O14686 1358-1572)
T2 construct: MLL4 (KMT2D, ALR), PHD fingers 4–6, residues 1358–1572; Detected on the array with anti-6xHis-HRP; The purification of the PHD constructs is not described separately; also called MLL4 PHD4–6 cassette; KMT2D PHD4–6; source: bacterially expressed recombinant
T2 sequence (O14686 1358-1572): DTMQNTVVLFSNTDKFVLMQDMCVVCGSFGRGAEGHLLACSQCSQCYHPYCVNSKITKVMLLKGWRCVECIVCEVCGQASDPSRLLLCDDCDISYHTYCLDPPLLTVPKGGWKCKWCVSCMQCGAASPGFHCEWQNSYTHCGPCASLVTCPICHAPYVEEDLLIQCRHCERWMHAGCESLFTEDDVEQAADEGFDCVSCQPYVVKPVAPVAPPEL

[3] = target: T3, MLL4 PHD7 (residues 5079–5152) (UniProt O14686 5079-5152)
T3 construct: MLL4 (KMT2D, ALR), PHD finger 7, residues 5079–5152; Detected on the array with anti-6xHis-HRP; The purification of the PHD constructs is not described separately; also called KMT2D PHD7; source: bacterially expressed recombinant
T3 sequence (O14686 5079-5152): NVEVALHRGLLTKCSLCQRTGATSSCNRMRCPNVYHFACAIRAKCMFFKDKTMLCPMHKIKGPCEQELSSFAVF

Row | binding result [1] | binding result [2] | binding result [3] | Binder
1 | binds |  |  | HVKRREKKSEK(Me)KKEERYKRHR (peptide, UniProt Q9P0U4 329-349, looked up, CFP1 (CXXC finger protein 1), human, peptide centred on K339 with 10 flanking residues on each side; held on the cellulose membrane of the array; source: synthetic peptide, SPOT synthesis on cellulose membrane) [CFP1 K339me1 peptide]
2 | binds | binds |  | VKVKHVKRREK(Me2)KSEKKKEERY (peptide, UniProt Q9P0U4 325-345, looked up, CFP1 (CXXC finger protein 1), human, peptide centred on K335 with 10 flanking residues on each side; held on the cellulose membrane of the array; source: synthetic peptide, SPOT synthesis on cellulose membrane) [CFP1 K335me2 peptide]
3 |  | binds |  | VKRREKKSEKK(Me3)KEERYKRHRQ (peptide, UniProt Q9P0U4 330-350, looked up, CFP1 (CXXC finger protein 1), human, peptide centred on K340 with 10 flanking residues on each side; held on the cellulose membrane of the array; source: synthetic peptide, SPOT synthesis on cellulose membrane) [CFP1 K340me3 peptide]
4 |  | binds |  | KEERYKRHRQK(Me2)QKHKDKWKHP (peptide, UniProt Q9P0U4 341-361, looked up, CFP1 (CXXC finger protein 1), human, peptide centred on K351 with 10 flanking residues on each side; held on the cellulose membrane of the array; source: synthetic peptide, SPOT synthesis on cellulose membrane) [CFP1 K351me2 peptide]
5 | binds | binds | binds | VKVKHVKRREKKSEKKKEERY (peptide, UniProt Q9P0U4 325-345, looked up, CFP1 (CXXC finger protein 1), human, peptide centred on K335 with 10 flanking residues on each side; held on the cellulose membrane of the array; also called unmethylated K335; source: synthetic peptide, SPOT synthesis on cellulose membrane) [CFP1 K335me0 peptide]
6 | binds | binds |  | VKVKHVKRREK(Me3)KSEKKKEERY (peptide, UniProt Q9P0U4 325-345, looked up, CFP1 (CXXC finger protein 1), human, peptide centred on K335 with 10 flanking residues on each side; held on the cellulose membrane of the array; source: synthetic peptide, SPOT synthesis on cellulose membrane) [CFP1 K335me3 peptide]
7 | binds | binds |  | VKVKHVKRREK(Me)KSEKKKEERY (peptide, UniProt Q9P0U4 325-345, looked up, CFP1 (CXXC finger protein 1), human, peptide centred on K335 with 10 flanking residues on each side; held on the cellulose membrane of the array; source: synthetic peptide, SPOT synthesis on cellulose membrane) [CFP1 K335me1 peptide]
8 | binds |  |  | RKRAVKVKHVK(Me)RREKKSEKKK (peptide, UniProt Q9P0U4 321-341, looked up, CFP1 (CXXC finger protein 1), human, peptide centred on K331 with 10 flanking residues on each side; held on the cellulose membrane of the array; also called K331 Kme1; source: synthetic peptide, SPOT synthesis on cellulose membrane) [CFP1 K331me1 peptide]
